Columns and labels:
[1] = target: LAG-3 expressed on cells (species not stated at the experiment) (human) (UniProt P18627)
[2] = target: LAG-3-huIgG1 Fc fusion protein; test: competition binding assay, LAG-3-Ig on Raji cells

B1: murine anti-LAG-3 mAb BAP050 (antibody, V domains shown)
VH: QIQLVQSGPELKKPGETVKISCKASGFTLTNYGMNWVRQTPGKGLKWMGWINTDTGEPTYADDFKGRFAFSLETSASTASLQINNLKNADTATYFCARNPPYYYGTNNAEAMDYWGQGTAVTVSS
VL: DIQMTQTTSSLSASLGDRVTISCSSSQDISNYLNWYQQKPDGTVKVLIYYTSTLHLGVPSRFSGSGSGTDYSLTISNLELEDIATYYCQQYYNLPWTFGGGTKLEIK
Q: How did the IFN-γ expression, cells stimulated with CMV peptides (fold increase) [1] turn out when B1 was run?
A: 1.4

Q: What about the IFN-γ expression, cells stimulated with Staphylococcal enterotoxin B (SEB) (3 µg/mL) (fold increase) [1] of the same binder?
A: 1.6

Q: What about the IFN-γ expression, cells stimulated with anti-CD3 (0.1 µg/mL) (fold increase) [1] of the same binder?
A: 3

Q: And the IC50 [2]?
A: 2.3 nM

Source: patent publication US20220153835A1
